Patent US11433139B2, “Peptide vaccines against interleukin-31” (Zoetis Services LLC, priority 2018, dated 2022)
Numbering of substitutions follows the chain as printed. “Also recorded” adds a separate entry of the source.

B1: Feline 15H05 1.1 FW3: FEL_15H05_VH1 with FEL_15H05_VL1_FW3 (antibody, V domains shown)
VH: QVLLVQSGAEVRTPGASVKIFCKASGYSFTSYTIHWLRQAPAQGLEWMGNINPTSGYTENNQRFKDRLTLTADTSTNTAYMELSSLRSADTAMYYCARWGFKYDGEWSFDVWGAGTTVTVSS
VL: EIQMTQSPSSLSASPGDRVTITCRASQGISIWLSWYQQKPGKVPKLLIYKASNLHIGVPPRFSGSGSGTHFTLTITSLQPEDIATYYCLQSQTYPLTFGGGTKLEIK
B2: Feline 15H05_VH3 mouse VL: heterochimeric antibody, FEL_15H05_VH3 with MU_15H05_VL (antibody, V domains shown)
VH: B1 VH with T13K, A42E
VL: DIQMNQSPSSLSASLGDTITVTCRASQGISIWLSWYQQKPGNIPKVLINKASNLHIGVPPRFSGSGSGTHFTLTITSLQPEDIATYYCLQSQTYPLTFGGGTKLEIN
B3: Feline 15H05 1.1 FW1: FEL_15H05_VH1 with FEL_15H05_VL1_FW1 (antibody, V domains shown)
VH: B1 VH
VL: B2 VL with N42K, I43V, V46L, N49Y, P60S, H70D, T76S, Q79E, I83A, N107K
B4: Feline 15H05_VH1 mouse VL: heterochimeric antibody, FEL_15H05_VH1 with MU_15H05_VL (antibody, V domains shown)
VH: B1 VH
VL: B2 VL
B5: Feline 15H05 1.1 FW2: FEL_15H05_VH1 with FEL_15H05_VL1_FW2 (antibody, V domains shown)
VH: B1 VH
VL: B1 VL with K42N, V43I, L46V, Y49N, P60S, H70D, T76S, Q79E, I83A
B6: Feline 15H05 1.1 FW1_3: FEL_15H05_VH1 with FEL_15H05_VL1_FW1_FW3 (antibody, V domains shown)
VH: B1 VH
VL: B2 VL with N42K, I43V, V46L, N49Y, N107K
B7: Feline 15H05 1.1_FW1_2: FEL_15H05_VH1 with FEL_15H05_VL1_FW1_FW2 (antibody, V domains shown)
VH: B1 VH
VL: B2 VL with P60S, H70D, T76S, Q79E, I83A, N107K
B8: Feline 15H05 1.1: felinized 15H05, FEL_15H05_VH1 with FEL_15H05_VL1 (antibody, V domains shown)
VH: B1 VH
VL: B1 VL with P60S, H70D, T76S, Q79E, I83A
B9: Feline 15H05 2.2: felinized 15H05, FEL_15H05_VH2 with FEL_15H05_VL2 (antibody, V domains shown)
VH: B1 VH with S28G, L37V, A40S
VL: EITMTQSPGSLAGSPGQQVTMNCRASQGISIWLSWYQQKPGQHPKLLIYKASNLHIGVPDRFSGSGSGTDFTLTISNLQAEDVASYYCLQSQTYPLTFGGGTKLEIK
B10: Feline 15H05 3.2: felinized 15H05, FEL_15H05_VH3 with FEL_15H05_VL2 (antibody, V domains shown)
VH: B1 VH with T13K, A42E
VL: B9 VL
B11: ZIL154: fully canine anti IL-31 antibody, VH SEQ ID NO: 99, VL SEQ ID NO: 101 (antibody, listed as Canis familiaris, V domains shown)
VH: EVHLVESGGDLVKPWGSLRLSCVASGFTFSDRGMSWVRQSPGKGLQWVAYIRYDGSRTDYADAVEGRFTISRDNAKNTLYLQMNSLRAEDTAVYYCARWDGSSFDYWGQGTLVTVSS
VL: DIVVTQTPLSLSVSPGETASFSCKASQSLLHSDGNTYLDWFRQKPGQSPQRLIYKVSNRDPGVPDRFSGSGSGTDFTLRISGVEADDAGLYYCMQAIHFPLTFGAGTKVELK
B12: ZIL11: fully canine anti IL-31 antibody, VH SEQ ID NO: 87, VL SEQ ID NO: 89 (antibody, listed as Canis familiaris, V domains shown)
VH: EVQLVESGGDLVKPAGSLRLSCVASGFTFRTYVMNWVRQAPGKGLQWVASINGGGSSPTYADAVRGRFTVSRDNAQNSLFLQMNSLRAEDTAVYFCVVSMVGPFDYWGQGTLVTVSS
VL: SSVLTQPPSVSVSLGQTATISCSGESLSNYYAQWFQQKAGQAPVLVIYKDTERPSGIPDRFSGSSSGNTHTLTISGARAEDEADYYCESAVSSDTIVFGGGT

molecular target: feline IL-31; assay: Affinity of anti-IL-31 antibodies by surface plasmon resonance (Biacore), feline IL-31 surface; type: binding; conditions: IL-31 conjugated to the surface (FIG. 2)
Protocol: (§1) The affinity with which candidate mAbs bind canine and feline IL-31 was determined using surface plasmon resonance (SPR) on a Biacore system (Biocore Life Sciences (GE Healthcare), Uppsala, Sweden). To avoid affinity differences associated with differential surface preparation that can occur when immobilizing antibodies to surfaces; a strategy was employed where IL-31 was directly conjugated to the surface. Immobilization was obtained by amine coupling 5 μg/mL IL-31 using N-hydroxysuccinimide (NHS)/1-Ethyl-3-(3-dimethylaminopropyl) carbodiimide (EDC) chemistry. Chips were quenched with ethanolamine and the affinity with which all candidate mAbs bound to the immobilized IL-31 was evaluated. All curves were fit to a 1:1 model. Affinity constants (KD) less than 1×10^−11M (1E-11 M) are below the lower limit of quantitation of detection for the instrument. Results for affinity measurements are described herein.

feline IL-31, sequence (as listed by the source): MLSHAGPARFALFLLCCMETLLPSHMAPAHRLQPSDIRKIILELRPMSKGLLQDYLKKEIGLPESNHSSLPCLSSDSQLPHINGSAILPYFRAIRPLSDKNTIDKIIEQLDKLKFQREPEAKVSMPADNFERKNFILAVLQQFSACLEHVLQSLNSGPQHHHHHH

| Molecule | affinity (KD) to feline IL-31 |
| --- | --- |
| B1 | excellent affinity |
| B2 | restored the affinity to feline IL-31 to equivalent or better than the mouse and chimeric forms |
| B3 | detrimental to the affinity |
| B4 | restored the affinity to feline IL-31 to equivalent or better than the mouse and chimeric forms |
| B5 | excellent affinity; also recorded: increased affinity |
| B6 | good affinity |
| B7 | good affinity |

molecular target: canine IL-31; assay: Affinity of anti-IL-31 antibodies by surface plasmon resonance (Biacore), canine IL-31 surface; type: binding; conditions: IL-31 conjugated to the surface (FIG. 2)
Protocol: as §1

canine IL-31, sequence (as listed by the source): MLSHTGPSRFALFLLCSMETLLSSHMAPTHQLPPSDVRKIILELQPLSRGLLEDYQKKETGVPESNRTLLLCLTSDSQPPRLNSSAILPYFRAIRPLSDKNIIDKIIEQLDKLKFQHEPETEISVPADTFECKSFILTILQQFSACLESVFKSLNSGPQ

| Molecule | affinity (KD) to canine IL-31 |
| --- | --- |
| B8 | neutral to positive impact on affinity |
| B1 | excellent affinity |
| B2 | improved affinity |
| B3 | detrimental to the affinity |
| B4 | improved affinity |
| B9 | neutral to positive impact on affinity |
| B10 | neutral to positive impact on affinity |
| B5 | excellent affinity; also recorded: increased affinity |
| B6 | good affinity |
| B7 | good affinity |

system: feline IL-31 15H05 mutant; assay: Indirect ELISA, binding to feline IL-31 15H05 mutant; conditions: compared with wildtype
Protocol: (§2) Mice and dogs were immunized with recombinant canine IL-31 (SEQ ID No. 155) for the purpose of identifying antibodies. Serum antibody titers from immunized animals were determined using an enzyme linked immunosorbent assay (ELISA). Canine or feline IL-31 (50 ng/well) was immobilized to polystyrene microplates and used as a capture antigen. Serum from immunized animals was diluted in phosphate buffered saline with 0.05% tween-20 (PBST). The presence of anti-IL-31 antibodies was detected with an appropriate secondary HRP labeled antibody. Following addition of a chromogenic substrate (SureBlue Reserve TMB 1-Component Microwell Peroxidase Substrate, KPL, Inc., Gaithersburg, Md.) and a ten minute incubation at room temperature (RT) the reaction was stopped with the addition of […] of 0.1 N HCl. The absorbance of each well was determined at an optical density (OD) of 450 nm. Antibodies were selected for their ability to bind canine and feline IL-31 using an ELISA. In some cases, further characterization was performed at the time of selection using an ELISA with a mutant form of the feline IL-31 protein as a capture antigen. Cells producing antibodies with desired binding and inhibitory properties were chosen for sequence analysis of RNA transcripts representing the variable heavy (VH) and variable light (VL) IgG chains.
(§3) For the indirect ELISA method, antibody binding to wildtype and feline IL-31 15H05 mutant proteins was assessed. […] In comparison, the 11E12 antibody bound to the wild-type feline IL-31 and its binding was not impacted by the mutations in the 15H05 epitope region as evidenced by the data in FIG. 4. To confirm binding, biacore analysis was performed using canine, feline, equine, human, feline 15H05 mutant, and feline 11E12 mutant IL-31 proteins as surfaces and a single test concentration of antibody. Similar to ELISA observations, all antibodies tested bound to wildtype feline IL-31. In agreement with the data described above in this section, mouse antibodies 11 E12 and 15H05 both bound to canine and feline IL-31 surfaces. […] From this group of nine fully canine antibodies, only ZIL1 and ZIL9 cross-reacted with equine IL-31. Of note, antibody 15H05 was the only one of all assayed herein that bound to canine, feline, and equine IL-31 indicating some level of epitope conservation across the three species. In contrast, none of the antibodies described herein bound to human IL-31. Additional biacore surfaces were used to verify ELISA observations showing differential binding of antibodies to wildtype feline IL-31 and two proteins with mutations in the 15H05 (15H05 mutant) or 11 E12 (11E12 mutant) epitopes. […] Differing results can be attributed to differences in the two assay methodologies.
(§4) To determine the impact of mAbs 11E12 and 15H05 ability to bind these mutant forms of feline IL-31, an indirect ELISA was run using the mutants directly coated on to an immunoassay plate. […] The minor attenuation of mAb 15H05s binding to the 11E12 mutant is likely due to translational effects of the mutations from movement of the two front helices effecting the 15H05 binding site. The mutations designed to affect mAb 15H05s binding (mutant 15H05) show a complete loss of mAb 1505s ability to bind this IL-31 mutant by ELISA. Unlike the 11E12 mutant, the changes in the random coil recognized by mAb 15H05 (mutant 15H05) had no impact on mAb 11E12 binding further supporting the distinction between the two epitopes (FIG. 6C).

feline IL-31 15H05 mutant, sequence (as listed by the source, change not shown): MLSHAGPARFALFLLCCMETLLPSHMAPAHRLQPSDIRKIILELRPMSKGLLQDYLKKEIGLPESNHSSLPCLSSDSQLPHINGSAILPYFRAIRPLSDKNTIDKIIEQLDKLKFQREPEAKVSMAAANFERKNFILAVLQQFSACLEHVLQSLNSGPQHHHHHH

| Molecule | binding to feline IL-31 15H05 mutant (ELISA) |
| --- | --- |
| B11 | binding was impacted |
| B12 | binding was impacted |

system: wildtype feline IL-31; assay: Indirect ELISA, binding to wildtype feline IL-31; conditions: not given
Protocol: as §2, §3, §4

wildtype feline IL-31, sequence (as listed by the source): as the sequence (as listed by the source, change not shown) above, with A126P, A128D counted along it

| Molecule | binding to wildtype feline IL-31 (ELISA) |
| --- | --- |
| B11 | capable of binding |
| B12 | capable of binding |
